This is an account of results in patent publication US20110289605A1, “Animal Model for Osteoarthritis and Intervertebral Disc Disease” (THE UNIVERSITY OF ROCHESTER, priority 2008, published 2011).

“Also recorded” adds a separate entry of the source.

The subject of assay [1] is IVD cells of Col2a1-CreER^T2;R26R transgenic mice. Nature of the assay: TM-induced Cre-recombination in intervertebral disc (IVD) cells, X-Gal staining. The following applies: TM to 2-week-old mice, X-Gal staining at 1 month of age; listed as TM. The assay is classed as in vivo, mouse. The method, then:
Since chondrocyte-specific β-catenin cAct mice (targeted by Col2a1-Cre transgenic mice) are embryonic lethal, to target intervertebral disc (IVD) cells (Col2a1-positive cell population) in postnatal and adult mice, the Col2a1-CreER^T2;R26R transgenic mice were used. Cre-recombination efficiency in IVD cells was determined in postnatal mice. TM (1 mg/10 g body weight, i.p., ×5 days) was administered into 2-week-old Col2a1-CreER^T2;R26R transgenic mice. Mice were sacrificed at 1 month of age and X-Gal staining was performed.

The subject of assay [2] is Col2a1-CreER^T2;R26R mice. Briefly: TM-induced Cre-recombination in articular and growth plate chondrocytes, X-Gal staining. The assay is classed as in vivo, mouse. The following applies: for Cre-recombination efficiency in articular chondrocytes: n=3. The method, then: Col2a1-CreER^T2 transgenic mice were bred with Rosa26 reporter mice. Methods for mouse genotyping including primer sequences are the same as described previously (Chen et al., Genesis 45:44-50 (2007); Zhu et al., Osteoarthr. Cartilage 16:129-30 (2008)). Tamoxifen (TM, 1 mg/10 g body weight/day, i.p. injection, ×5 days) was administered to the 3- and 6-month-old mice, which were sacrificed 2 months after TM induction at the age of 5 and 8 months. Cre-recombination efficiency was evaluated by X-Gal staining. Nuclear Fast Red staining was performed as a counter stain. β-catenin^fx(Ex3)/fx(Ex3) mice were originally reported by Harada et al (Harada et al., Embo J. 18:5931-42 (1999)). The sequences of PCR primers for genotyping β-catenin^fx(Ex3)/fx(Ex3) mice are: upper primer, 5′-[…]-3′ (SEQ ID NO:10) and lower primer, 5′-[…]-3′ (SEQ ID NO:11). The 412-bp PCR product was detected in wild-type mice, and the 645-bp PCR product was detected in homozygous β-catenin^fx(Ex3)/fx(Ex3) mice. In heterozygous mice (β-catenin^fx(Ex3)/wt), both 412 and 645-bp PCR products were detected. The Col2a1-CreER^T2;β-catenin^fx(Ex3)/w transgenic mice and their Cre-negative littermates were used as controls and were administered TM as the experimental animals for phenotype analysis and cellular function studies.
In the present study, TM-induced Cre-recombination in fully developed growth-plate cartilage was investigated. Thus, creating the possibility of completely separating the role of a specific gene in articular chondrocytes from its potential effect on the growth plate cartilage, which may indirectly affect the function of articular cartilage. Col2a1-CreER^T2 transgenic mice were bred with Rosa26 reporter mice (Soriano, Nat. Genet. 21:70-71 (1999); Mao et al., Proc. Natl. Acad. Sci. USA 96:5037-42 (1999)). TM induction was performed in the 3- and 6-month-old Col2a1-CreER^T2;R26R mice. Mice were then sacrificed 2 months after TM induction at the age of 5 and 8 months and Cre-recombination efficiency was evaluated by X-Gal staining.

For assay [3], the system named is 3.4 kb mouse Mmp-13 promoter. Briefly: Mmp-13 promoter activity. The assay is classed as cell-based. The method, then:
(§1) To determine the signaling mechanism through which β-catenin regulates Mmp-13 gene expression, in vitro studies using a RCS chondrogenic cell line were performed. […] A putative Runx2 binding site was identified within the 3.4 kb region of the Mmp-13 promoter.

Assay [4] deals with RCS chondrogenic cell line. Briefly: Wnt3a treatment, Runx2 protein expression (Western blot). The assay is classed as cell-based. The following applies: 0-48 hours. The method, then:
as §1

Assay [5] relates to RCS chondrogenic cell line. Nature of the assay: Wnt3a treatment of RCS cells, Mmp-13 mRNA expression. The following applies: 24 and 48 hours. The assay is classed as cell-based. The method, then: Total RNA extracted from primary articular chondrocytes, articular cartilage tissue, or primary disc cells was prepared using Trizol (Invitrogen; Carlsbad, Calif.) according to the manufacturer's protocol. One microgram total RNA was used to synthesize cDNA by iScripts cDNA Synthesis Kit (Bio-Rad; Hercules, Calif.).
as §1

As for `CC/C(=C(\c1ccccc1)c1ccc(OCCN(C)C)cc1)c1ccccc1` [Tamoxifen], the “Cre-recombination efficiency in IVD cells” value in assay [1] is “high efficiency of Cre-recombination in annulus fibrosus cells and endplate cartilage cells but not in nucleus pulposus cells; also recorded: High Cre-recombination efficiency was observed in annulus fibrosus (AF) cells and endplate cartilage (EC) cells but not nucleus pulposus (NP) cells”. The “Cre-recombination efficiency in growth plate chondrocytes” value in assay [2] (TM administered in 3- and 6-month-old mice, 2 months after induction) was “less than 20%”. The “Cre-recombination efficiency in articular chondrocytes” value was 84% in assay [2] (TM administered in 3-month-old mice, X-Gal staining 2 months after induction (5-month-old)) and 76% in assay [2] (TM administered in 6-month-old mice, X-Gal staining 2 months later (8-month-old)).

B1: Wnt3a: canonical Wnt ligand (protein, UniProt P56704 19-352, looked up)
Protein Wnt-3a: SYPIWWSLAVGPQYSSLGSQPILCASIPGLVPKQLRFCRNYVEIMPSVAEGIKIGIQECQHQFRGRRWNCTTVHDSLAIFGPVLDKATRESAFVHAIASAGVAFAVTRSCAEGTAAICGCSSRHQGSPGKGWKWGGCSEDIEFGGMVSREFADARENRPDARSAMNRHNNEAGRQAIASHMHLKCKCHGLSGSCEVKTCWWSQPDFRAIGDFLKDKYDSASEMVVEKHRESRGWVETLRPRYTYFKVPTERDLVYYEASPNFCEPNPETGSFGTRDRTCNVSSHGIDGCDLLCCGRGHNARAERRREKCRCVFHWCCYVSCQECTRVYDVHTCK
B1: the “Mmp-13 promoter activity, Runx2 binding site mutated” value in assay [3] (mutation of the Runx2 binding site in the promoter) is recorded as “completely blocked the stimulatory effect; also recorded: completely abolished”. For the same molecule, in assay [3] (wild-type 3.4 kb promoter), the Mmp-13 promoter activity result was “stimulated Mmp-13 promoter activity”. In addition, the Runx2 protein expression result in assay [4] was “stimulated Runx2 protein expression in a time-dependent manner”; in assay [4] (listed as Wnt3a2), “significantly up regulated”. The “Mmp-13 mRNA expression” value in assay [5] is “significantly increased; also recorded: stimulated Mmp-13 expression”.
